Data: article PMC5839545, “CENP-C/H/I/K/M/T/W/N/L and hMis12 but not CENP-S/X participate in complex formation in the nucleoplasm of living human interphase cells outside centromeres” (PLoS ONE, 2018)

How the values were obtained:
Conditions in all cases: partners not purified
mCherry-(s)-Nsl1 = molecular target: T1, mCherry-(s)-Nsl1 (human, UniProt Q96IY1 1-281); assay: dual color fluorescence cross-correlation spectroscopy (DC-FCCS); EGFP and mCherry fusion proteins co-expressed in living interphase HEp-2 or U2OS cells; spots in the nucleoplasm free of kinetochores, focal volume bleached before; 37°C; 488 and 561 nm; corrected values are the measured ones times about two
T1 construct: Nsl1 of the hMis12 complex, human; source: HEp-2 or U2OS cells, transfected by electroporation, in living cells
T1 sequence (looked up): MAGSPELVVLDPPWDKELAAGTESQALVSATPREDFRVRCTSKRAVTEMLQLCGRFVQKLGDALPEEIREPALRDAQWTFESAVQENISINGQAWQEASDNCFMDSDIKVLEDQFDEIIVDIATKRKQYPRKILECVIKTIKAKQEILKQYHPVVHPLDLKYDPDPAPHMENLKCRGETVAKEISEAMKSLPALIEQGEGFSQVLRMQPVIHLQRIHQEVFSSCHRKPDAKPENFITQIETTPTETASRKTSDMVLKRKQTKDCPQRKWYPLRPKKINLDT

mCherry-(s)-Nnf1 = molecular target: T2, mCherry-(s)-Nnf1 (human, UniProt Q6P1K2 1-205); assay: as above
T2 construct: Nnf1 of the hMis12 complex, human; source: HEp-2 or U2OS cells, transfected by electroporation, in living cells
T2 sequence (looked up): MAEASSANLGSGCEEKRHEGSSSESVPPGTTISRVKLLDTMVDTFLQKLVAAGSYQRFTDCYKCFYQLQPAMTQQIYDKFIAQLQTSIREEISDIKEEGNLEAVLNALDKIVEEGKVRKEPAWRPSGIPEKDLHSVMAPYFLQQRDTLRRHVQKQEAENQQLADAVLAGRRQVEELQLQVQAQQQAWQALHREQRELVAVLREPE

hMis12-(s)-mCherry = molecular target: T3, hMis12-(s)-mCherry (human, UniProt Q9H081 1-205); assay: as above
T3 construct: hMis12, human; source: HEp-2 or U2OS cells, transfected by electroporation, in living cells; not shown: mCherry (short linker)
T3 sequence (looked up): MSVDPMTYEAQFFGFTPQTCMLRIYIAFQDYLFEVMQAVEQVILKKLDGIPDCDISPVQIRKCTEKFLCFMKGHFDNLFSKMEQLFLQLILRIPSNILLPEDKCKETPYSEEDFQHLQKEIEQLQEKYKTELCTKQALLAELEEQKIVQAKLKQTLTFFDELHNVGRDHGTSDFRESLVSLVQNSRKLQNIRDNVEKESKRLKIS

mCherry-(s)-CENP-W = molecular target: T4, mCherry-(s)-CENP-W (human, UniProt Q5EE01 1-88); assay: single-wavelength fluorescence cross-correlation spectroscopy (SW-FCCS); EGFP and mCherry fusion proteins co-expressed in living interphase HEK293 cells; nucleoplasm; 37°C; 514 nm; effective (apparent) Kd from scatter plot (S) or histogram (H), corrected for non-fluorescent mCherry and observation volumes
T4 construct: CENP-W, human; source: HEp-2 or U2OS cells (DC-FCCS) and HEK293 cells (SW-FCCS), transfected by electroporation, in living cells
T4 sequence (Q5EE01 whole entry, the tested form may be a part): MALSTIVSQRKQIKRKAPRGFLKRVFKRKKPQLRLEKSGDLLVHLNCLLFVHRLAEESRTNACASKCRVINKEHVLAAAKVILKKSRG

Nnf1-(s)-mCherry = molecular target: T5, Nnf1-(s)-mCherry (human, UniProt Q6P1K2 1-205); assay: dual color fluorescence cross-correlation spectroscopy (DC-FCCS); EGFP and mCherry fusion proteins co-expressed in living interphase HEp-2 or U2OS cells; spots in the nucleoplasm free of kinetochores, focal volume bleached before; 37°C; 488 and 561 nm; corrected values are the measured ones times about two
T5 construct: Nnf1 of the hMis12 complex, human; source: HEp-2 or U2OS cells, transfected by electroporation, in living cells; not shown: mCherry (short linker)
T5 sequence (looked up): T2 sequence (looked up)

mCherry-(s)-CENP-K = molecular target: T6, mCherry-(s)-CENP-K (human, UniProt Q9BS16 1-269); assay: as above
T6 construct: CENP-K, human; also called mCherry-CENP-K; source: HEp-2 or U2OS cells, transfected by electroporation, in living cells
T6 sequence (Q9BS16 whole entry): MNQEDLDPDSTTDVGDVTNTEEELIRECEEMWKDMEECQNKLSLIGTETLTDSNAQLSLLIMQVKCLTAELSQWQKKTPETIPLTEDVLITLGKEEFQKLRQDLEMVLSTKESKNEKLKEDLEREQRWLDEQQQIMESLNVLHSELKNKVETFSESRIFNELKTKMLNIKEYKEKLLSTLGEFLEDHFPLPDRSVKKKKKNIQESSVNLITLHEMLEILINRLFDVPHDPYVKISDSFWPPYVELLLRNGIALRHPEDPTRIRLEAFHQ

CENP-T-(s)-mCherry = molecular target: T7, CENP-T-(s)-mCherry (human, UniProt Q96BT3 1-561); assay: as above
T7 construct: CENP-T, human; called full-length CENP-T against its N-terminal domain; source: HEp-2 or U2OS cells, transfected by electroporation, in living cells; not shown: mCherry (short linker)

mCherry-(s)-CENP-T = molecular target: T8, mCherry-(s)-CENP-T (human, UniProt Q96BT3 1-561); assay: as above
T8 construct: CENP-T, human; called wildtype against CENP-T^∆N; source: HEp-2 or U2OS cells (DC-FCCS) and HEK293 cells (SW-FCCS), transfected by electroporation, in living cells

B1: EGFP-(s)-Dsn1 (natural protein, human, UniProt Q9H410 1-356, looked up)
chain: MTSVTRSEIIDEKGPVMSKTHDHQLESSLSPVEVFAKTSASLEMNQGVSEERIHLGSSPKKGGNCDLSHQERLQSKSLHLSPQEQSASYQDRRQSWRRASMKETNRRKSLHPIHQGITELSRSISVDLAESKRLGCLLLSSFQFSIQKLEPFLRDTKGFSLESFRAKASSLSEELKHFADGLETDGTLQKCFEDSNGKASDFSLEASVAEMKEYITKFSLERQTWDQLLLHYQQEAKEILSRGSTEAKITEVKVEPMTYLGSSQNEVLNTKPDYQKILQNQSKVFDCMELVMDELQGSVKQLQAFMDESTQCFQKVSVQLGKRSMQQLDPSPARKLLKLQLQNPPAIHGSGSGSCQ
notes: Dsn1 of the hMis12 complex, human; source: HEp-2 or U2OS cells, transfected by electroporation, in living cells
Question: How did the “cross-correlation, measured (%)” value (mCherry-(s)-Nsl1) turn out when B1 was run?
Answer: The value was 24%.

Question: What about the “cross-correlation, measured (%)” value (mCherry-(s)-Nnf1) of the same binder?
Answer: Its value is 22%.

Question: And the “cross-correlation, measured (%)” value (hMis12-(s)-mCherry)?
Answer: The value was 32%.

B2: EGFP-(s)-CENP-T^∆N (domain or fragment, human, UniProt Q96BT3 396-561, looked up)
chain: ASPESASSTPESLQARRHHQFLEPAPAPGAAVLSSEPAEPLLVRHPPRPRTTGPRPRQDPHKAGLSHYVKLFSFYAKMPMERKALEMVEKCLDKYFQHLCDDLEVFAAHAGRKTVKPEDLELLMRRQGLVTDQVSLHVLVERHLPLEYRQLLIPCAYSGNSVFPAQ
notes: CENP-T, human, C-terminal domain, aas 396-561, said to contain the histone-fold domain (aas 376-561); also called EGFP-(s)-CENP-T^396-561; source: HEK293 cells, transfected by electroporation, in living cells
Question: Which “dimer, corrected (%)” value (mCherry-(s)-CENP-W) does the source give for B2 here?
Answer: Its value is 24%.

Question: And the “dimer, uncorrected (%)” value (mCherry-(s)-CENP-W)?
Answer: The value was 18.2%.

B3: EGFP-(s)-Nsl1 (natural protein, human, UniProt Q96IY1 1-281, looked up)
chain: T1 sequence (looked up)
notes: Nsl1 of the hMis12 complex, human; source: HEp-2 or U2OS cells, transfected by electroporation, in living cells
Question: B3 was tested. Which “cross-correlation, measured (%)” value (mCherry-(s)-Nnf1) did it give?
Answer: Its value is 18%.

B4: Nsl1-(s)-EGFP (natural protein, human, UniProt Q96IY1 1-281, looked up)
chain: T1 sequence (looked up)
notes: Nsl1 of the hMis12 complex, human; source: HEp-2 or U2OS cells, transfected by electroporation, in living cells; not shown: EGFP (short linker)
Question: B4 was tested. Which “cross-correlation, measured (%)” value (hMis12-(s)-mCherry) did it give?
Answer: Its value is 36%.

B5: hMis12-(s)-EGFP (natural protein, human, UniProt Q9H081 1-205, looked up)
chain: T3 sequence (looked up)
notes: hMis12, human; source: HEp-2 or U2OS cells, transfected by electroporation, in living cells; not shown: EGFP (short linker)
Question: What does the source list for B5?
Answer: cross-correlation, measured (%) (Nnf1-(s)-mCherry): 31%; cross-correlation, measured (%) (mCherry-(s)-CENP-K): 18%; cross-correlation, measured (%) (CENP-T-(s)-mCherry): 19%; cross-correlation, measured (%) (mCherry-(s)-CENP-T): 18%
